{"source": "paper PMC6584995", "about": "“Disruption of an amino acid transporter LHT1 leads to growth inhibition and low yields in rice” (BMC Plant Biology, 2019)", "proteins": {"B1": {"name": "OsLHT1 (Oryza sativa Japonica Group) (protein)", "chain": "MGTQVADNYPPAKDGRSAQEKAIDDWLPITSSRNAKWWYSAFHNVTAMVGAGVLSLPYAMSELGWGPGIAVLILSWIITLYTLWQMVEMHEMVPGKRFDRYHELGQHAFGEKLGLWIVVPQQLVVEVGVNIVYMVTGGKSLKKFHDVLCEGHGCKNIKLTYFIMIFASVHFVLSQLPNFNSISGVSLAAAVMSLSYSTIAWGASVDKGKVADVDYHLRATTSTGKVFGFFSALGDVAFAYAGHNVVLEIQATIPSTPEKPSKKPMWKGVVVAYIIVALCYFPVALVGYWAFGNHVDDNILITLSRPKWLIALANMMVVIHVIGSYQIYAMPVFDMIETVLVKKLRFPPGLTLRLIARTLYVAFTMFIAITFPFFGGLLGFFGGFAFAPTTYFLPCIMWLAIYKPRRFSLSWFTNWICIILGVMLMILSPIGGLRQIIIDAKTYKFYS"}}, "substrate": "NC(=O)C[C@H](N)C(=O)O", "assay": "two-electrode voltage clamp in Xenopus oocytes, Asn-induced currents", "type": "cell-based, Oryza sativa", "details": "pH 5.4 (Tris/MES), currents at -140 mV, holding potential -40 mV, transport", "data": [{"protein": "B1", "values": [{"measurement": "Km", "value": "583 ± 51", "unit": "µM"}]}]}
